# Data reported in US20210087296A1 (published 2021).
# B1: Fab 3A2 (Fab, V domains shown)
# VH: EVQLVESGGGLVQPGGSLRLSCAASGFNLSSSSMHWVRQAPGKGLEWVASIYPSYSYTYYADSVKGRFTISADTSKNTAYLQMNSLRAEDTAVYYCARVKLQKDKSHQWIRNLVATPYGRYVMDYWGQGTLVTVSS
# VL: DIQMTQSPSSLSASVGDRVTITCRASQSVSSAVAWYQQKPGKAPKLLIYSASSLYSGVPSRFSGSRSGTDFTLTISSLQPEDFATYYCQQYGYPITFGQGTKVEIKR
# notes: Synthetic human Fab from E. coli periplasm; also called R3C9; not shown: His tag at C-terminus of heavy chain
# B2: Fab R2C14 (Fab, V domains shown)
# VH: EVQLVESGGGLVQPGGSLRLSCAASGFNIYSSSIHWVRQAPGKGLEWVASIYSYSGYTYYADSVKGRFTISADTSKNTAYLQMNSLRAEDTAVYYCARVSNRYNRSSASIAGLQLFRPYGMDYWGQGTLVTVSS
# VL: DIQMTQSPSSLSASVGDRVTITCRASQSVSSAVAWYQQKPGKAPKLLIYSASSLYSGVPSRFSGSRSGTDFTLTISSLQPEDFATYYCQQSSYSLITFGQGTKVEIKR
# notes: Fab
# Key:
# [1] = target: T1, MMP-14 catalytic domain mutant T190A (human, UniProt P50281 114-287, limits assumed); assay: competitive ELISA, mutant in solution against immobilised wild-type MMP-14
# T1 construct: Position as printed
# Description: (§1) Fab ELISA. Purified Fab was serially diluted in MMP-14-coated wells followed by incubation at ambient temperature for 1 hr. Bound Fabs were detected using the anti-Fab-HRP conjugate. The half-maximal effective concentration (EC₅₀) was calculated from a four-parametric logistic curve-fitting analysis.
# [2] = target: T2, MMP-14 catalytic domain mutant F198A (human, UniProt P50281 114-287, limits assumed); assay: as above
# T2 construct: Position as printed
# Description: as §1
# [3] = target: T3, MMP-14 catalytic domain mutant Y203A (human, UniProt P50281 114-287, limits assumed); assay: as above
# T3 construct: Position as printed
# Description: as §1
# [4] = target: T4, MMP-14 catalytic domain mutant F204A (human, UniProt P50281 114-287, limits assumed); assay: as above
# T4 construct: Position as printed
# Description: as §1
# [5] = target: T5, MMP-14 catalytic domain mutant N231A (human, UniProt P50281 114-287, limits assumed); assay: as above
# T5 construct: Position as printed
# Description: as §1
# [6] = target: T6, matrix metalloproteinase-14 catalytic domain (cdMMP-14) (human, UniProt P50281 114-287, limits assumed, biotinylated with EZ-Link Sulfo-NHS-LC-Biotin for ELISA; amine-coupled to CM5 chip for SPR); assay: ELISA, purified Fab titrated on immobilised biotin-cdMMP-14, anti-Fab-HRP
# T6 construct: also called catalytic domain of MMP-14; wild-type MMP-14
# Description: After labeling purified cdMMP-14 using EZ-Link Sulfo-NHS-LC biotinylation kit (Thermo Fisher), biotin-cdMMP-14 was incubated in a streptavidin coated ELISA plate (Thermo Scientific) blocked with biotin-BSA. After washing, 50 μL of 2 M Fabs were then added to the first well and serially diluted to ˜1 nM and incubated for 30 minutes at 4° C. After washing, the ELISA signals were developed by anti-Fab-HRP (Sigma) and TMB (Thermo Scientific). The color development reaction was stopped by addition of H₂SO₄, and the absorptions at 450 nm were measured.
binder,measurement,setting,value
B1,binding result,[1],binds
same,binding result,[2],binds
same,binding result,[3],binds
same,binding result,[4],binds
same,binding result,[5],binds
B2,EC50,[6],1.2 nM
